# Measured values from patent publication US20240165282A1, “CONFORMATIONAL CONSTRAINED SOMATOSTATIN RECEPTOR 3 PEPTIDE LIGANDS AND THEIR CONJUGATES AND USES THEREOF” (STARGET PHARMA LTD., priority 2021, published 2024).
# Target: human cloned somatostatin receptor 2 (human) (UniProt P30874)
# Experiment: cell-based or functional assay
# Sequence of human cloned somatostatin receptor 2 (human) (P30874 whole entry): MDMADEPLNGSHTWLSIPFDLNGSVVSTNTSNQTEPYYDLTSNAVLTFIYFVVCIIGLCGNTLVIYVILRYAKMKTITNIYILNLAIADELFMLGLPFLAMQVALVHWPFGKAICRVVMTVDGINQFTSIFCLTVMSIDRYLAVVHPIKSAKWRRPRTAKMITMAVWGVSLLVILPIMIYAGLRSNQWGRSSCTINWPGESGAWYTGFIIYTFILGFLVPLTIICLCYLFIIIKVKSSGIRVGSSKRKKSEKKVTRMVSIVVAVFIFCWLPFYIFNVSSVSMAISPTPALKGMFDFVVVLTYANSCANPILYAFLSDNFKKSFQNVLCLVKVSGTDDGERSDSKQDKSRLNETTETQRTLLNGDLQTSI
substance,measurement,value
SRIF-28 (from UniProt P61278 89-116) (ligand),Cellular Internalization EC50 (β-Arrestin Luminescence Assay),3 nM
same,Efficacy - maximal response,47500 RLU
